B1: DDR1 V408C (in the C287S background) (receptor, human, UniProt Q08345 19-913, looked up)
chain: DADMKGHFDPAKCRYALGMQDRTIPDSDISASSSWSDSTAARHSRLESSDGDGAWCPAGSVFPKEEEYLQVDLQRLHLVALVGTQGRHAGGLGKEFSRSYRLRYSRDGRRWMGWKDRWGQEVISGNEDPEGVVLKDLGPPMVARLVRFYPRADRVMSVCLRVELYGCLWRDGLLSYTAPVGQTMYLSEAVYLNDSTYDGHTVGGLQYGGLGQLADGVVGLDDFRKSQELRVWPGYDYVGWSNHSFSSGYVEMEFEFDRLRAFQAMQVHSNNMHTLGARLPGGVECRFRRGPAMAWEGEPMRHNLGGNLGDPRARAVSVPLGGRVARFLQCRFLFAGPWLLFSEISFISDVVNNSSPALGGTFPPAPWWPPGPPPTNFSSLELEPRGQQPCAKAEGSPTAILIGCLVAIILLLLLIIALMLWRLHWRRLLSKAERRVLEEELTVHLSVPGDTILINNRPGPREPPPYQEPRPRGNPPHSAPCVPNGSALLLSNPAYRLLLATYARPPRGPGPPTPAWAKPTNTQAYSGDYMEPEKPGAPLLPPPPQNSVPHYAEADIVTLQGVTGGNTYAVPALPPGAVGDGPPRVDFPRSRLRFKEKLGEGQFGEVHLCEVDSPQDLVSLDFPLNVRKGHPLLVAVKILRPDATKNARNDFLKEVKIMSRLKDPNIIRLLGVCVQDDPLCMITDYMENGDLNQFLSAHQLEDKAAEGAPGDGQAAQGPTISYPMLLHVAAQIASGMRYLATLNFVHRDLATRNCLVGENFTIKIADFGMSRNLYAGDYYRVQGRAVLPIRWMAWECILMGKFTTASDVWAFGVTLWEVLMLCRAQPFGQLTDEQVIENAGEFFRDQGRQVYLSRPPACPQGLYELMLRCWSRESEQRPPFSQLHRFLAEDALNTV
notes: discoidin domain receptor 1, isoform DDR1b, human; full-length cDNA in pRK5; source: HEK293, transiently transfected, in lysate
B2: DDR1 residue 409 to cysteine (in the C287S background) (receptor, human, UniProt Q08345 19-913, looked up)
chain: DADMKGHFDPAKCRYALGMQDRTIPDSDISASSSWSDSTAARHSRLESSDGDGAWCPAGSVFPKEEEYLQVDLQRLHLVALVGTQGRHAGGLGKEFSRSYRLRYSRDGRRWMGWKDRWGQEVISGNEDPEGVVLKDLGPPMVARLVRFYPRADRVMSVCLRVELYGCLWRDGLLSYTAPVGQTMYLSEAVYLNDSTYDGHTVGGLQYGGLGQLADGVVGLDDFRKSQELRVWPGYDYVGWSNHSFSSGYVEMEFEFDRLRAFQAMQVHSNNMHTLGARLPGGVECRFRRGPAMAWEGEPMRHNLGGNLGDPRARAVSVPLGGRVARFLQCRFLFAGPWLLFSEISFISDVVNNSSPALGGTFPPAPWWPPGPPPTNFSSLELEPRGQQPVCKAEGSPTAILIGCLVAIILLLLLIIALMLWRLHWRRLLSKAERRVLEEELTVHLSVPGDTILINNRPGPREPPPYQEPRPRGNPPHSAPCVPNGSALLLSNPAYRLLLATYARPPRGPGPPTPAWAKPTNTQAYSGDYMEPEKPGAPLLPPPPQNSVPHYAEADIVTLQGVTGGNTYAVPALPPGAVGDGPPRVDFPRSRLRFKEKLGEGQFGEVHLCEVDSPQDLVSLDFPLNVRKGHPLLVAVKILRPDATKNARNDFLKEVKIMSRLKDPNIIRLLGVCVQDDPLCMITDYMENGDLNQFLSAHQLEDKAAEGAPGDGQAAQGPTISYPMLLHVAAQIASGMRYLATLNFVHRDLATRNCLVGENFTIKIADFGMSRNLYAGDYYRVQGRAVLPIRWMAWECILMGKFTTASDVWAFGVTLWEVLMLCRAQPFGQLTDEQVIENAGEFFRDQGRQVYLSRPPACPQGLYELMLRCWSRESEQRPPFSQLHRFLAEDALNTV
notes: discoidin domain receptor 1, isoform DDR1b, human; full-length cDNA in pRK5; The text gives only the range V408C to A417C (10 single mutants); also called one of the 10 mutants V408C to A417C; source: HEK293, transiently transfected, in lysate
B3: DDR1 E412C (in the C287S background) (receptor, human, UniProt Q08345 19-913, looked up)
chain: DADMKGHFDPAKCRYALGMQDRTIPDSDISASSSWSDSTAARHSRLESSDGDGAWCPAGSVFPKEEEYLQVDLQRLHLVALVGTQGRHAGGLGKEFSRSYRLRYSRDGRRWMGWKDRWGQEVISGNEDPEGVVLKDLGPPMVARLVRFYPRADRVMSVCLRVELYGCLWRDGLLSYTAPVGQTMYLSEAVYLNDSTYDGHTVGGLQYGGLGQLADGVVGLDDFRKSQELRVWPGYDYVGWSNHSFSSGYVEMEFEFDRLRAFQAMQVHSNNMHTLGARLPGGVECRFRRGPAMAWEGEPMRHNLGGNLGDPRARAVSVPLGGRVARFLQCRFLFAGPWLLFSEISFISDVVNNSSPALGGTFPPAPWWPPGPPPTNFSSLELEPRGQQPVAKACGSPTAILIGCLVAIILLLLLIIALMLWRLHWRRLLSKAERRVLEEELTVHLSVPGDTILINNRPGPREPPPYQEPRPRGNPPHSAPCVPNGSALLLSNPAYRLLLATYARPPRGPGPPTPAWAKPTNTQAYSGDYMEPEKPGAPLLPPPPQNSVPHYAEADIVTLQGVTGGNTYAVPALPPGAVGDGPPRVDFPRSRLRFKEKLGEGQFGEVHLCEVDSPQDLVSLDFPLNVRKGHPLLVAVKILRPDATKNARNDFLKEVKIMSRLKDPNIIRLLGVCVQDDPLCMITDYMENGDLNQFLSAHQLEDKAAEGAPGDGQAAQGPTISYPMLLHVAAQIASGMRYLATLNFVHRDLATRNCLVGENFTIKIADFGMSRNLYAGDYYRVQGRAVLPIRWMAWECILMGKFTTASDVWAFGVTLWEVLMLCRAQPFGQLTDEQVIENAGEFFRDQGRQVYLSRPPACPQGLYELMLRCWSRESEQRPPFSQLHRFLAEDALNTV
notes: as for B1
B4: DDR1 residue 411 to cysteine (in the C287S background) (receptor, human, UniProt Q08345 19-913, looked up)
chain: DADMKGHFDPAKCRYALGMQDRTIPDSDISASSSWSDSTAARHSRLESSDGDGAWCPAGSVFPKEEEYLQVDLQRLHLVALVGTQGRHAGGLGKEFSRSYRLRYSRDGRRWMGWKDRWGQEVISGNEDPEGVVLKDLGPPMVARLVRFYPRADRVMSVCLRVELYGCLWRDGLLSYTAPVGQTMYLSEAVYLNDSTYDGHTVGGLQYGGLGQLADGVVGLDDFRKSQELRVWPGYDYVGWSNHSFSSGYVEMEFEFDRLRAFQAMQVHSNNMHTLGARLPGGVECRFRRGPAMAWEGEPMRHNLGGNLGDPRARAVSVPLGGRVARFLQCRFLFAGPWLLFSEISFISDVVNNSSPALGGTFPPAPWWPPGPPPTNFSSLELEPRGQQPVAKCEGSPTAILIGCLVAIILLLLLIIALMLWRLHWRRLLSKAERRVLEEELTVHLSVPGDTILINNRPGPREPPPYQEPRPRGNPPHSAPCVPNGSALLLSNPAYRLLLATYARPPRGPGPPTPAWAKPTNTQAYSGDYMEPEKPGAPLLPPPPQNSVPHYAEADIVTLQGVTGGNTYAVPALPPGAVGDGPPRVDFPRSRLRFKEKLGEGQFGEVHLCEVDSPQDLVSLDFPLNVRKGHPLLVAVKILRPDATKNARNDFLKEVKIMSRLKDPNIIRLLGVCVQDDPLCMITDYMENGDLNQFLSAHQLEDKAAEGAPGDGQAAQGPTISYPMLLHVAAQIASGMRYLATLNFVHRDLATRNCLVGENFTIKIADFGMSRNLYAGDYYRVQGRAVLPIRWMAWECILMGKFTTASDVWAFGVTLWEVLMLCRAQPFGQLTDEQVIENAGEFFRDQGRQVYLSRPPACPQGLYELMLRCWSRESEQRPPFSQLHRFLAEDALNTV
notes: as for B2
B5: DDR1 residue 410 to cysteine (in the C287S background) (receptor, human, UniProt Q08345 19-913, looked up)
chain: DADMKGHFDPAKCRYALGMQDRTIPDSDISASSSWSDSTAARHSRLESSDGDGAWCPAGSVFPKEEEYLQVDLQRLHLVALVGTQGRHAGGLGKEFSRSYRLRYSRDGRRWMGWKDRWGQEVISGNEDPEGVVLKDLGPPMVARLVRFYPRADRVMSVCLRVELYGCLWRDGLLSYTAPVGQTMYLSEAVYLNDSTYDGHTVGGLQYGGLGQLADGVVGLDDFRKSQELRVWPGYDYVGWSNHSFSSGYVEMEFEFDRLRAFQAMQVHSNNMHTLGARLPGGVECRFRRGPAMAWEGEPMRHNLGGNLGDPRARAVSVPLGGRVARFLQCRFLFAGPWLLFSEISFISDVVNNSSPALGGTFPPAPWWPPGPPPTNFSSLELEPRGQQPVACAEGSPTAILIGCLVAIILLLLLIIALMLWRLHWRRLLSKAERRVLEEELTVHLSVPGDTILINNRPGPREPPPYQEPRPRGNPPHSAPCVPNGSALLLSNPAYRLLLATYARPPRGPGPPTPAWAKPTNTQAYSGDYMEPEKPGAPLLPPPPQNSVPHYAEADIVTLQGVTGGNTYAVPALPPGAVGDGPPRVDFPRSRLRFKEKLGEGQFGEVHLCEVDSPQDLVSLDFPLNVRKGHPLLVAVKILRPDATKNARNDFLKEVKIMSRLKDPNIIRLLGVCVQDDPLCMITDYMENGDLNQFLSAHQLEDKAAEGAPGDGQAAQGPTISYPMLLHVAAQIASGMRYLATLNFVHRDLATRNCLVGENFTIKIADFGMSRNLYAGDYYRVQGRAVLPIRWMAWECILMGKFTTASDVWAFGVTLWEVLMLCRAQPFGQLTDEQVIENAGEFFRDQGRQVYLSRPPACPQGLYELMLRCWSRESEQRPPFSQLHRFLAEDALNTV
notes: as for B2

Target: the molecule itself
Test: cross-linking; disulfide cross-linking of introduced cysteines in transiently transfected HEK293 cells, untreated or with 10 ug/ml collagen I for 90 min at 37 °C; lysis in 1% Nonidet P-40 buffer with NEM; nonreducing SDS-PAGE on 5% gels, Western blot with anti-DDR1; efficiency as percent dimeric of total DDR1
For B1, the “dimerization efficiency (percent dimeric of total DDR1)” value was over 70%. With B2 the “dimerization efficiency (percent dimeric of total DDR1)” value was over 70%. In the case of B3, the “dimerization efficiency (percent dimeric of total DDR1)” value is reported as over 70%. B4 was tested, and the “dimerization efficiency (percent dimeric of total DDR1)” value was over 70%. For B5, the “dimerization efficiency (percent dimeric of total DDR1)” value was over 70%.
